{"source": "paper PMC12383448", "key": {"[1]": {"biological_target": "His12 (UniProt position 197, CHQQIHRNAPI)", "assay": "NMR"}, "[2]": {"biological_target": "His8 (UniProt position 193, ACLSCHQQIHR)", "assay": "NMR"}, "[3]": {"settings": "10 °C, not stated for the titration sample (the pH 6.0 zinc-binding NMR samples had no other added buffers or salts), not stated (no added buffer reported for the NMR samples), folded, Zn2+-bound (0.9 mM ZL with equimolar ZnCl2)"}}}
{"substance": "ZC4H2 zinc finger peptide ZL (ZC4H2-ZL) (Homo sapiens)", "values": [{"measurement": "pKa", "setting": "[1]; [3]", "result": "5.5 ± 0.1"}, {"measurement": "pKa", "setting": "[1]; unfolded, zinc-free ZL peptide", "result": "near 6.0"}, {"measurement": "pKa", "setting": "[2]; [3]", "result": "6.9 ± 0.1"}, {"measurement": "pKa", "setting": "[2]; unfolded, zinc-free ZL peptide", "result": "near 6.0"}]}
